{"source": "paper PMC2964404", "target": "Staphylococcus aureus enterotoxin C3, wild type (Staphylococcus aureus) (UniProt P0A0L5)", "assay": "ITC"}
{"substance": "variable domain of the murine T cell receptor (TCR) β chain 8.2 (domain or fragment)", "values": [{"measurement": "dH", "value": -20.4, "unit": "kJ/mol"}]}
